Results from patent US6652861B1, “Anti-HIV and anti-tumor peptides and truncated polypeptides of MAP30” (priority 1999, dated 2003).
Where two headings read alike, the source gives them in different places.

B1: MLF25: MAP30 Lys-C fragment, 24-25 kDa, residues 13-232 of SEQ ID NO:1 (protein, listed as Momordica charantia)
chain: TYTKFIEDFRATLPFSHKVYDIPLLYSTISDSRRFILLDLTSYAYETISVAIDVTNVYVVAYRTRDVSYFFKESPPEAYNILFKGTRKITLPYTGNYENLQTAAHKIRENIDLGLPALSSAITTLFYYNAQSAPSALLVLIQTTAEAARFKYIERHVAKYVATNFKPNLAIISLENQWSALSKQIFLAQNQGGKFRNPVDLIKPTGERFQVTNVDSDVVK
B2: MVF21: MAP30 V8 fragment, 20-21 kDa, residues 1-187 of SEQ ID NO:1 (protein, listed as Momordica charantia)
chain: DVNFDLSTATAKTYTKFIEDFRATLPFSHKVYDIPLLYSTISDSRRFILLDLTSYAYETISVAIDVTNVYVVAYRTRDVSYFFKESPPEAYNILFKGTRKITLPYTGNYENLQTAAHKIRENIDLGLPALSSAITTLFYYNAQSAPSALLVLIQTTAEAARFKYIERHVAKYVATNFKPNLAIISLE
B3: MVF0.8: MAP30 V8 C-terminal fragment, residues 188-263 of SEQ ID NO:1 (protein, listed as Momordica charantia)
chain: NQWSALSKQIFLAQNQGGKFRNPVDLIKPTGERFQVTNVDSDVVKGNIKLLLNSRASTADENFITTMTLLGESVVN
B4: MLF0.8: MAP30 Lys-C C-terminal fragment, residues 196-263 of SEQ ID NO:1 (protein, listed as Momordica charantia)
chain: QIFLAQNQGGKFRNPVDLIKPTGERFQVTNVDSDVVKGNIKLLLNSRASTADENFITTMTLLGESVVN
B5: MLF21: MAP30 Lys-C fragment, 20-21 kDa, residues 13-195 of SEQ ID NO:1 (protein, listed as Momordica charantia)
chain: TYTKFIEDFRATLPFSHKVYDIPLLYSTISDSRRFILLDLTSYAYETISVAIDVTNVYVVAYRTRDVSYFFKESPPEAYNILFKGTRKITLPYTGNYENLQTAAHKIRENIDLGLPALSSAITTLFYYNAQSAPSALLVLIQTTAEAARFKYIERHVAKYVATNFKPNLAIISLENQWSALSK
B6: MVF25: MAP30 V8 fragment, 24-25 kDa, residues 1-219 of SEQ ID NO:1 (protein, listed as Momordica charantia)
chain: DVNFDLSTATAKTYTKFIEDFRATLPFSHKVYDIPLLYSTISDSRRFILLDLTSYAYETISVAIDVTNVYVVAYRTRDVSYFFKESPPEAYNILFKGTRKITLPYTGNYENLQTAAHKIRENIDLGLPALSSAITTLFYYNAQSAPSALLVLIQTTAEAARFKYIERHVAKYVATNFKPNLAIISLENQWSALSKQIFLAQNQGGKFRNPVDLIKPTGE

What was measured:
HIV-1 = assay: Anti-HIV activity: viral core protein p24 expression in HIV-1 infected H9 T lymphocytes by RIA; format: cell-based
Experimental: (§1) In FIG. 3A, anti-HIV activity was assayed by HIV core protein p24 expression in H9 cells (Lee-Huang et al., 1990 and Lee-Huang et al., 1991). […] Anti-tumor activity was determined by in vitro proliferation of human breast tumor MAD-MB-231 cell by [^3H] thymidine incorporation (Lee-Huang et al., 1999) and the average control value was about 1.88×10^5 cpm/ml (FIG. 3B). In FIG. 3C, the cytotoxic effect was measured by the MTS colorimetric assay (Lee-Huang et al., 1999), and in FIG. 3D, the ribosome-inactivation activity was determined by in vitro translation of globin message in a rabbit reticulocyte lysate system (Lee-Huang et al., 1990 and Lee-Huang et al., 1991) and the average control value was about 5.8×10^4 cpm/ml. In each assay, triplicates were carried in two independent experiments, and the results are normalized to values obtained in control assays. Standard deviations are indicated by error bars.
(§2) Anti-HIV activity was determined by inhibition on the expression of viral core protein p24 expression by RIA (Lee-Huang et al., 1990; Lee-Huang et al., 1991 and Lee-Huang et al., 1999). Anti-tumor activity was determined by the effects of the peptide fragments on the growth of human breast tumor cell line MDA-MB-231 by [^3H] thymidine incorporated (Lee-Huang et al., 1999 and Rybak et al., 1994). HIV-integrase inhibition was assayed by the three specific reactions catalyzed by the integrase, namely, 3′ processing (specific cleavage of the dinucleotide GT from the viral substrate HIV-LTR U3), strand transfer (integration) and disintegration (Lee-Huang et al., 1995). Topological inactivation was measured by the conversion of supercoiled HIV-LTR DNA to relaxed and linear forms (Huang et al., 1992). Ribosome inactivation was determined by the translation of globin message in a rabbit reticulocyte lysate system (Lee-Huang et al., 1990 and Lee-Huang et al., 1991).
(§3) To analyze the structural and activity relationship of the anti-HIV proteins, each of the homogeneous proteolytic fragments was assayed for anti-HIV and anti-tumor activities. […] Anti-HIV activity was measured by viral core protein p24 expression in HIV-1 infected H9 T lymphocytes by RIA (Lee-Huang et al., 1990 and Lee-Huang et al., 1991). Anti-tumor activity was measured by proliferation of human breast tumor MDA231 cells (Lee-Huang et al., 1999 and Rybak et al., 1994). […] No significant difference in the anti-HIV and anti-tumor activities was detected between these core fragments.

[1] = tested on: human breast tumor cell line MDA-MB-231; assay: Anti-tumor activity: proliferation of MDA-MB-231 cells by [3H] thymidine incorporation; format: cell-based; conditions: MDA231 proliferation
Experimental: as §1, §2, §3

supercoiled HIV-LTR DNA = assay: Topological inactivation: conversion of supercoiled HIV-LTR DNA to relaxed and linear forms; format: biochemical; conditions: supercoiled HIV-LTR into relaxed and linear forms
Experimental: (§4) In FIG. 4A, the inhibition on HIV-integrase was assayed by the 3′-processing reaction of HIV-1 integrase (Lee-Huang et al., 1995). This activity was assayed by specific cleavage of the dinucleotide GT from 5′-[^32P] labeled 21-mer of the HIV-U3-LTR substrate. The effect was measured by the inhibition of the formation of labeled 19-mer product by autoradiography of urea gels. […] In FIG. 4B, topological inactivation was measured by the conversion of supercoiled HIV-LTR DNA (S) into relaxed (R) and linear (L) forms by agarose gel electrophoresis (Huang et al., 1992). Samples that cause topological inactivation show L and R and no S forms.
as §2

HIV-1 integrase = biological target: T1, HIV-1 integrase (Human immunodeficiency virus type 1 group M subtype B, UniProt P04585); assay: HIV-integrase inhibition (3'-processing, strand transfer, disintegration); format: biochemical; conditions: strand transfer and disintegration
T1 construct: assayed by the 3′-processing reaction of HIV-1 integrase
Experimental: as §4, §2

[2] = tested on: endoproteinase Lys-C and Glu-C (V8); assay: Resistance to limited proteolysis with Lys-C and V8 (SDS-PAGE); conditions: Lys-C or V8, up to 24 hr
Experimental: MAP30 and GAP31 were subjected to proteolysis with sequencing grade endoproteinase Lys-C and Glu-C (Promega, Madison, Wis.). Lys-C cleaves at the carboxylic side of lysine (Elliott et al., 1986). Glu-C, also known as V8 protease, cleaves specifically at the carboxylic side of glutamic acid in the presence of ammonium ion (Drapeau et al., 1972). In the absence of ammonium ion, Glu-C acts at both aspartic and glutamic acids. The reaction buffers for Lys-C and V8 were 25 mM Tris-HCl, pH 7.8, 1 mM EDTA and 50 mM ammonium bicarbonate, pH 7.8 respectively.
FIGS. 1A-1D show time course SDS-PAGE patterns of Lys-C and V8 digestions of MAP30 and GAP31. Three major fragments were produced in each case. These fragments are designated MLF25, MLF21, MLF0.8 (MAP30 Lys-C Fragments of 25, 21, and 0.8 kDa, FIG. 1A), MVF25, MVF21, MVF0.8 (MAP30 V8 Fragments of 25, 21, and 0.8 kDa, FIG. 1B), GLF26, GLF22, GLF0.6 (GAP31 Lys-C Fragments of 26, 22 and 0.6 kDa, FIG. 1C), and GVF26, GVF22, GVF0.6 (GAP31 V8 Fragments of 26, 22 and 0.6 kDa, FIG. 1D). The smaller peptides are C-terminal fragments produced during proteolysis and they are sensitive to further digestion to short peptides.

[3] = tested on: ribosome (rabbit reticulocyte lysate system); assay: Ribosome inactivation: translation of globin message in a rabbit reticulocyte lysate system; format: biochemical; conditions: [3H]-labelled leucine incorporation
Experimental: as §1, §2
The anti-HIV and anti-tumor fragments, MLF25, MLF21, MVF25, MVF21, GLF26, GLF22, GVF26, GVF22 are active in HIV-integrase inhibition as assayed by the 3′-processing (FIG. 4A), strand transfer and disintegration (data not shown) as well as in DNA topological inactivation as assayed by the conversion of supercoiled HIV-LTR into relaxed and linear forms (FIG. 4B). […] Moreover, the C-terminal regions of these proteins are required for N-glycosidase activity, but not for antiviral and anti-tumor activities.

Molecule	anti-HIV activity (HIV-1)	anti-tumor activity [1]	DNA topological inactivation (supercoiled HIV-LTR DNA)	HIV-integrase inhibition (HIV-1 integrase)	resistance to proteolysis [2]	ribosome inactivation [3]	anti-HIV activity (HIV-1; listed as peak 3)	anti-tumor activity ([1]; listed as peak 3)
GVF0.6: GAP31 V8 C-terminal fragment, residues 196-251 of SEQ ID NO:2 (NKWGKLSFQIRTSGANGMFSEAVELERANGKKYYVTAVDQVKPKIALLKFVDKDPK; listed as Gelonium multiflorum)	neither anti-HIV nor anti-tumor activity	neither anti-HIV nor anti-tumor activity	–	–	–	–	–	–
GVF22: GAP31 V8 fragment, 21-22 kDa, residues 1-195 of SEQ ID NO:2	–	–	active	active	remained intact even after 24 hr of proteolysis	none of these fragments are active	–	–
GVF26: GAP31 V8 fragment, 25-26 kDa, residues 1-219 of SEQ ID NO:2	–	–	active	active	–	none of these fragments are active	–	–
GLF0.6: GAP31 Lys-C C-terminal fragment, residues 201-251 of SEQ ID NO:2 (LSFQIRTSGANGMFSEAVELERANGKKYYVTAVDQVKPKIALLKFVDKDPK; listed as Gelonium multiflorum)	neither anti-HIV nor anti-tumor activity	neither anti-HIV nor anti-tumor activity	–	–	–	–	no activity was found	no activity was found
GLF26: GAP31 Lys-C fragment, 25-26 kDa, residues 11-226 of SEQ ID NO:2	Most of the anti-HIV and anti-tumor activity	Most of the anti-HIV and anti-tumor activity	active	active	remained intact even after 24 hr of proteolysis	none of these fragments are active	–	–
GLF22: GAP31 Lys-C fragment, 21-22 kDa, residues 11-200 of SEQ ID NO:2	Most of the anti-HIV and anti-tumor activity	Most of the anti-HIV and anti-tumor activity	active	active	–	none of these fragments are active	–	–
B1	–	–	active	active	remained intact even after 24 hr of proteolysis	none of these fragments are active	–	–
B2	–	–	active	active	remained intact even after 24 hr of proteolysis	none of these fragments are active	–	–
B3	neither anti-HIV nor anti-tumor activity	neither anti-HIV nor anti-tumor activity	–	–	–	–	–	–
B4	neither anti-HIV nor anti-tumor activity	neither anti-HIV nor anti-tumor activity	–	–	–	–	–	–
B5	–	–	active	active	–	none of these fragments are active	–	–
B6	–	–	active	active	–	none of these fragments are active	–	–
